Laboratory results published in patent US7485618B2, “FGF-5 supported and binding peptides” (Genencor International, Inc., priority 2003, dated 2009).

Biological target: T1, FGF-5 (Homo sapiens, UniProt P12034)
T1 construct: host or cells: FGF-5 added exogenously to NR6R-3T3 murine fibroblasts
T1 sequence (P12034 21-268): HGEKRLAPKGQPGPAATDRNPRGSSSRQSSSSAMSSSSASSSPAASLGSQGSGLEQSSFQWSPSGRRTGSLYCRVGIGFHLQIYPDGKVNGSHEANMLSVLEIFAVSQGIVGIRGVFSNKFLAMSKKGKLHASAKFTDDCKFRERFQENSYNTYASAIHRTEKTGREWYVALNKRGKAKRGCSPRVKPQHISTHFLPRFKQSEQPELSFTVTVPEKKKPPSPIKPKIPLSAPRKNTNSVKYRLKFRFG
Experiment: BLA binding assay on FGF-5 coated plates, nitrocefin readout
Conditions: purified peptide-BLA fusions at 0.1 nM, bound to FGF-5
Description: This Example describes secondary screening methods used to analyze FGF-5 binding npeptides. Individual clones were picked and grown up in 5 ml LB+5 ppm CMP overnight at 37° C. The cell pastes were then treated with 125μ of B-PER reagent (Pierce) for 30 min with slow mixing. COSTAR plates (96-well) were coated with 0.1 μg (100 μl of 1 μg/ml) FGF-5, carrier-free (R&D Systems #237-F5/CF, Lot #GQ18304A) with gentle rocking at 4° C. overnight, followed by blocking with Superblock blocking buffer (Pierce) for several hours at room temperature. Then, 100 μl B-Per treated supernatant from individual clones from pGV02-L were added to the FGF-5 coated plates. After one hour, plates were washed six times with PBS, 0.05% TWEEN®-20 and 200 μl of nitrocefin assay buffer containing 0.1 mg/ml nitrocefin (Oxoid) was added to measure residual bound beta-lactamase activity, using Abs490/min. Control wells contained pCB04 (See, FIG. 1C) beta-lactamase as a control. […]
Cell pastes were harvested from the 200 ml cell cultures described in Example 6, by centrifugation at 3,000×g for 10 min. […] BLA activity of all liquid fractions was assayed using nitrocefin, and the concentration of fusion proteins in each fraction was calculated assuming the same specific activity as the WT enzyme. […]

B1: WT (wild-type): Wild-type BLA (E. cloaceae beta-lactamase) without peptide, control for binding of the fusions (protein)
chain: TPVSEKQLAEVVANTITPLMKAQSVPGMAVAVIYQGKPHYYTFGKADIAANKPVTPQTLFELGSISKTFTGVLGGDAIARGEISLDDAVTRYWPQLTGKQWQGIRMLDLATYTAGGLPLQVPDEVTDNASLLRFYQNWQPQWKPGTTRLYANASIGLFGALAVKPSGMPYEQAMTTRVLKPLKLDHTWINVPKAEEAHYAWGYRDGKAVRVSPGMLDAQAYGVKTNVQDMANWVMANMAPENVADASLKQGIALAQSRYWRIGSMYQGLGWEMLNWPVEANTVVEGSDSKVALAPLPVAEVNPPAPPVKASWVHKTGSTGGFGSYVAFIPEKQIGIVMLANTSYPNPARVEAAYHILEALQ
- Percent Bound at 0.1 nM: 0.4%
